This note sets out measurements from patent US20260209291A1.

Sequence of VGFR(½)-hFc (Aflibercept) (Fc fusion) (chain): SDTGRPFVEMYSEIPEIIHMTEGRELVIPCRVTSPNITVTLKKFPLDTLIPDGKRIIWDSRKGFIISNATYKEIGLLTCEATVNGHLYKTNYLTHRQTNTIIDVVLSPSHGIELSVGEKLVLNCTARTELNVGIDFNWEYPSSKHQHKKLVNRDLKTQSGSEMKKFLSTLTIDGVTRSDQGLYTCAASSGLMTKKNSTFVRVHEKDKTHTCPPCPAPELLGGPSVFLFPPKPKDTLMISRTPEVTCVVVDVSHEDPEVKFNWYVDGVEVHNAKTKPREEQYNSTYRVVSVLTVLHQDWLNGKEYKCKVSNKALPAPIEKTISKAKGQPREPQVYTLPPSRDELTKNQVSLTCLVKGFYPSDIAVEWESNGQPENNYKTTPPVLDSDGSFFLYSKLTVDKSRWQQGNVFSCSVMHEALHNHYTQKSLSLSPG

The first experiment deals with T1, GDF11 (Growth Differentiation Factor 11) (Homo sapiens (Human)) (UniProt O95390).
T1 sequence: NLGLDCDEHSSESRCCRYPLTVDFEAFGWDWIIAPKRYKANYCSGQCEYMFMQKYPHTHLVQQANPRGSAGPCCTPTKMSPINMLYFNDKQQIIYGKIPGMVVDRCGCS
Briefly: cell-based or functional assay.
TNFR2-hFc (Etanercept) (Fc fusion) returned a neutralization of GDF11 signaling (pSmad2/3 luciferase reporter bioassay, HEK293) of more than 8.2 nM.

Regarding VGFR(½)-hFc (Aflibercept) (Fc fusion), the neutralization of GDF11 signaling (pSmad2/3 luciferase reporter bioassay, HEK293) is more than 8.2 nM.

A further experiment addresses T2, myostatin (Homo sapiens (Human)) (UniProt O14793).
T2 sequence: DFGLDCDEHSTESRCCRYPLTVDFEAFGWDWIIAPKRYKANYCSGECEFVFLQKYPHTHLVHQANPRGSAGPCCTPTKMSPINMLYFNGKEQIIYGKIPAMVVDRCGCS
Briefly: cell-based or functional assay.
“FSD1 (E126A) (single entity produced in E. coli) (from UniProt P19883 93-165)” displayed a neutralization of myostatin signaling (pSmad2/3 luciferase reporter bioassay, HEK293) of more than 822 nM.

As to “FSD1 (Q124A) (single entity produced in E. coli) (from UniProt P19883 93-165)”, the neutralization of myostatin signaling (pSmad2/3 luciferase reporter bioassay, HEK293) was more than 822 nM.

Turning to “FSD1 (Q124A, E126A) (single entity produced in E. coli) (from UniProt P19883 93-165)”, the neutralization of myostatin signaling (pSmad2/3 luciferase reporter bioassay, HEK293) is more than 822 nM.

TNFR2-hFc (Etanercept) (Fc fusion): the neutralization of myostatin signaling (pSmad2/3 luciferase reporter bioassay, HEK293) is more than 8.2 nM.

VGFR(½)-hFc (Aflibercept) (Fc fusion) yielded a neutralization of myostatin signaling (pSmad2/3 luciferase reporter bioassay, HEK293) of more than 8.2 nM.

In the next experiment the target is T3, activin A (human) (UniProt P08476).
T3 sequence: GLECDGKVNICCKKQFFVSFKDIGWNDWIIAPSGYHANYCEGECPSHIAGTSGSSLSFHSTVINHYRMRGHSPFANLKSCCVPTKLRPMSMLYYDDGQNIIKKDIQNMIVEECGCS
Briefly: cell-based or functional assay.
“FSD1 (E126A) (single entity produced in E. coli) (from UniProt P19883 93-165)” yielded a neutralization of activin A signaling (pSmad2/3 luciferase reporter bioassay, HEK293) of more than 822 nM.

Substance “FSD1 (Q124A) (single entity produced in E. coli) (from UniProt P19883 93-165)” showed a neutralization of activin A signaling (pSmad2/3 luciferase reporter bioassay, HEK293) of more than 822 nM.

“FSD1 (Q124A, E126A) (single entity produced in E. coli) (from UniProt P19883 93-165)”: the neutralization of activin A signaling (pSmad2/3 luciferase reporter bioassay, HEK293) was more than 822 nM.

For the substance TNFR2-hFc (Etanercept) (Fc fusion), the neutralization of activin A signaling (pSmad2/3 luciferase reporter bioassay, HEK293) was more than 8.2 nM.
